Numbered stars: 1 amine (or outer) side, 2 acyl side, 3 side chain; on linkers, the order of the positions; unused ones are H or OH. Bridge positions count the residues as written; N and C are the ends. Side chains are listed from the residue outwards. Ends that are not written are not given here. * marks the point of attachment. C20 diacid = O=C(O)CCCCCCCCCCCCCCCCCCC(=O)*; γGlu = O=C(O)[C@H](CCC(=O)[*:2])N[*:1]; AEEA = NCCOCCOCC(=O)O

Assay [1] deals with T1, rat calcitonin receptor (rat, UniProt P32214 25-516).
T1 construct: whole, on cells; Used as membranes prepared from BHK tk'ts 13 cells transiently transfected with the rat calcitonin receptor (Assay VIII); also called rCTR; rat calcitonin (a) receptor
T1 sequence (looked up): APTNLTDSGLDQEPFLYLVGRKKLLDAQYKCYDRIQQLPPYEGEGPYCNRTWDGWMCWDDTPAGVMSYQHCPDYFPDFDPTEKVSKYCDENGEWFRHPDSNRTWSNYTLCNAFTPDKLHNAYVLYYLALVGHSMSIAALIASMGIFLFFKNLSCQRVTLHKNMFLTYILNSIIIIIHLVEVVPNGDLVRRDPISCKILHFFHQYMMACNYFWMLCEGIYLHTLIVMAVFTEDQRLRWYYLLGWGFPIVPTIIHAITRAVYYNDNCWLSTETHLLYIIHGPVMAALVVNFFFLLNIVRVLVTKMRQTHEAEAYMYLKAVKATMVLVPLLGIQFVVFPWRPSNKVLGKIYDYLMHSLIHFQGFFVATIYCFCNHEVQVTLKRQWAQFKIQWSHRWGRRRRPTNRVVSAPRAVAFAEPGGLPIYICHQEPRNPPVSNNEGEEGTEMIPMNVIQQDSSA
As to the kind of experiment: IC50 on rat CTR divided by IC50 on rat amylin receptor (Assays VIII/VI).

Assay [2] concerns the target T2, human calcitonin receptor (human, UniProt P30988 25-474).
T2 construct: whole, on cells; Used as membranes prepared from a BHK tk'ts 13 cell line stably transfected with the human calcitonin receptor (Assay VII); also called hCTR; hCT
T2 sequence (looked up): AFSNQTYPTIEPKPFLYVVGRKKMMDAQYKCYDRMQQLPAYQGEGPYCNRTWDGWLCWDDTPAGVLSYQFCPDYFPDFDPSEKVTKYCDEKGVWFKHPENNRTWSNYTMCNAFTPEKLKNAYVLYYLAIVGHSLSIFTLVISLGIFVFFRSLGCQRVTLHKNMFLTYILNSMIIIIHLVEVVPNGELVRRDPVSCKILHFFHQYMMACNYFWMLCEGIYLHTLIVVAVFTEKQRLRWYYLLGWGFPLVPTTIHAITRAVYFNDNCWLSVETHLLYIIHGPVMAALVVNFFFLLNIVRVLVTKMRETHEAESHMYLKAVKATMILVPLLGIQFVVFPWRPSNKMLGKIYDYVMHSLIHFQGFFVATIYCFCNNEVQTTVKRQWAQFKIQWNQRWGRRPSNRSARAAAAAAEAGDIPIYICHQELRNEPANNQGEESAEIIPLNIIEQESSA
Description: IC50 on human CTR divided by IC50 on human amylin receptor (Assays VII/V). As for the experimental part:
The resulting pellet was resuspended, homogenized and centrifuged (20.000 rpm, 15 min) in a buffer containing 20 mM Na-HEPES and 0.1 mM EDTA (pH 7.4, buffer 2). The resulting pellet was resuspended in buffer 2 and protein concentration was measured (BCA protein Assay, Pierce). The homogenate was kept cold during the whole procedure. The membranes were kept at −80° C. until use. The assay was performed in a 384 well Optiplate (PerkinElmer) in a total volume of 40 ul. Membranes were mixed with SPA beads. Final concentration of membranes 35 ng/μL final and SPA beads was 0.05 mg/well. Test-compounds were dissolved in DMSO and further diluted in assay buffer (50 mM Hepes, pH 7.4, 1 mM CaCl2, 5 mM MgCl₂, 0.1% OA and 0.02% Tween20). […] The final mixture was incubated with shaking at 400 rpm for 120 min at 25° C. prior to centrifugation (1500 rpm, 10 min). Samples were analyzed on TopCounter™ (Packard). The IC₅₀ was calculated using (one site binding competition analysis) GraphPad Prism5 as a measure of receptor affinity.
Membranes were prepared in the following way; the cells were rinsed with PBS and incubated with Versene for approximately 5 min before harvesting. The cells were flushed with PBS and the cell-suspension was centrifuged for 5 min at 1000 rpm. Cells were homogenized (Ultrathurrax) in a buffer containing 20 mM Na-HEPES and 10 mM EDTA (pH 7.4) and centrifuged at 20.000 rpm for 15 min. The resulting pellet was resuspended, homogenized and centrifuged (20.000 rpm, 15 min) in a buffer containing 20 mM Na-HEPES and 0.1 mM EDTA (pH 7.4, buffer 2). The resulting pellet was resuspended in buffer 2 and protein concentration was measured (BCA protein Assay, Pierce). The homogenate was kept cold during the whole procedure. The membranes were kept at −80° C. until use. Assay was performed in a 384 well Optiplate (PerkinElmer) in a total volume of 40 ul. Membranes were mixed with SPA beads.

Assay [3] has as its target T1, rat calcitonin receptor. As to the kind of experiment: SPA competition with 125I-calcitonin, membranes of BHK cells with rat CTR (Assay VIII).
The target of assay [4] is T3, rat amylin receptor (rat calcitonin receptor + rat RAMP 3) (rat, UniProt P32214 25-516; Q9JJ73 23-147).
T3 construct: whole, on cells; Used as membranes prepared from BHK tk'ts 13 cells transiently transfected with rat calcitonin receptor and rat RAMP 3 (Assay VI); also called rAmylin-R; rat amylin 3(a) receptor
T3 sequence (looked up) 1: T1 sequence (looked up)
T3 sequence (looked up) 2: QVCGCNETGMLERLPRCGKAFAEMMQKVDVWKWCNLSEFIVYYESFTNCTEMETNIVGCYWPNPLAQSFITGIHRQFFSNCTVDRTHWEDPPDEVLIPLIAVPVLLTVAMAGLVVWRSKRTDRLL
Description: SPA competition with 125I-rat amylin, membranes of BHK cells with rat CTR + rat RAMP3 (Assay VI).

B1: N^ε1-[2-[2-[2-[[(4S)-4-carboxy-4-(19-carboxynonadecanoylamino)butanoyl]amino]ethoxy]ethoxy]acetyl]-[Arg17,Pro21,Pro27,His34]-h-amylin (peptide)
peptide: K([AEEA-γGlu-C20 diacid])CNTATCATQRLANFLRHSSPNFGAIPSSTNVGHNTY-NH2
modifications: disulfide 2-7; N-terminus assumed
SMILES: CC[C@H](C)[C@H](NC(=O)[C@H](C)NC(=O)CNC(=O)[C@H](Cc1ccccc1)NC(=O)[C@H](CC(N)=O)NC(=O)[C@@H]1CCCN1C(=O)[C@H](CO)NC(=O)[C@H](CO)NC(=O)[C@H](Cc1c[nH]cn1)NC(=O)[C@H](CCCNC(=N)N)NC(=O)[C@H](CC(C)C)NC(=O)[C@H](Cc1ccccc1)NC(=O)[C@H](CC(N)=O)NC(=O)[C@H](C)NC(=O)[C@H](CC(C)C)NC(=O)[C@H](CCCNC(=N)N)NC(=O)[C@H](CCC(N)=O)NC(=O)[C@@H](NC(=O)[C@H](C)NC(=O)[C@@H]1CSSC[C@H](NC(=O)[C@@H](N)CCCCNC(=O)COCCOCCNC(=O)CC[C@H](NC(=O)CCCCCCCCCCCCCCCCCCC(=O)O)C(=O)O)C(=O)N[C@@H](CC(N)=O)C(=O)N[C@@H]([C@@H](C)O)C(=O)N[C@@H](C)C(=O)N[C@@H]([C@@H](C)O)C(=O)N1)[C@@H](C)O)C(=O)N1CCC[C@H]1C(=O)N[C@@H](CO)C(=O)N[C@@H](CO)C(=O)N[C@H](C(=O)N[C@@H](CC(N)=O)C(=O)N[C@H](C(=O)NCC(=O)N[C@@H](Cc1c[nH]cn1)C(=O)N[C@@H](CC(N)=O)C(=O)N[C@H](C(=O)N[C@@H](Cc1ccc(O)cc1)C(N)=O)[C@@H](C)O)C(C)C)[C@@H](C)O
notes: Analogue of human amylin; also called compound 76
B1: the “Ratio rCT/rAmylin binding” value in the assay with rat calcitonin receptor [1] came out at 56.8. Further, the “Ratio hCT/hAmylin binding” value in assay [2] was found to be 80. Further, the half-inhibitory concentration (IC50) (commonly the midpoint of a concentration-inhibition curve) amounted to 38.9 nM with rat calcitonin receptor [3] and 0.686 nM in assay [4].

B2: N^ε1-[2-[2-[2-[[(4S)-4-carboxy-4-(19-carboxynonadecanoylamino)butanoyl]amino]ethoxy]ethoxy]acetyl]-[Arg17,Pro21,Pro27,Pro28,Pro31]-h-amylin (peptide)
peptide: K([AEEA-γGlu-C20 diacid])CNTATCATQRLANFLRHSSPNFGAIPPSTPVGSNTY-NH2
modifications: disulfide 2-7
notes: Analogue of human amylin; also called compound 53
For the molecule B2, the “Ratio rCT/rAmylin binding” value in the assay with rat calcitonin receptor [1] was determined as 130. The “Ratio hCT/hAmylin binding” value in assay [2] came out at 104. Further, the IC50 with rat calcitonin receptor [3] is 10.9 nM; in assay [4] it was 0.084 nM.

B3: N^ε1-[2-[2-[2-[[(4S)-4-carboxy-4-(19-carboxynonadecanoylamino)butanoyl]amino]ethoxy]ethoxy]acetyl]-[Arg17,Pro21,Pro27,Pro28,Pro34]-h-amylin (peptide)
peptide: K([AEEA-γGlu-C20 diacid])CNTATCATQRLANFLRHSSPNFGAIPPSTNVGPNTY-NH2
modifications: disulfide 2-7; N-terminus assumed
SMILES: CC[C@H](C)[C@H](NC(=O)[C@H](C)NC(=O)CNC(=O)[C@H](Cc1ccccc1)NC(=O)[C@H](CC(N)=O)NC(=O)[C@@H]1CCCN1C(=O)[C@H](CO)NC(=O)[C@H](CO)NC(=O)[C@H](Cc1c[nH]cn1)NC(=O)[C@H](CCCNC(=N)N)NC(=O)[C@H](CC(C)C)NC(=O)[C@H](Cc1ccccc1)NC(=O)[C@H](CC(N)=O)NC(=O)[C@H](C)NC(=O)[C@H](CC(C)C)NC(=O)[C@H](CCCNC(=N)N)NC(=O)[C@H](CCC(N)=O)NC(=O)[C@@H](NC(=O)[C@H](C)NC(=O)[C@@H]1CSSC[C@H](NC(=O)[C@@H](N)CCCCNC(=O)COCCOCCNC(=O)CC[C@H](NC(=O)CCCCCCCCCCCCCCCCCCC(=O)O)C(=O)O)C(=O)N[C@@H](CC(N)=O)C(=O)N[C@@H]([C@@H](C)O)C(=O)N[C@@H](C)C(=O)N[C@@H]([C@@H](C)O)C(=O)N1)[C@@H](C)O)C(=O)N1CCC[C@H]1C(=O)N1CCC[C@H]1C(=O)N[C@@H](CO)C(=O)N[C@H](C(=O)N[C@@H](CC(N)=O)C(=O)N[C@H](C(=O)NCC(=O)N1CCC[C@H]1C(=O)N[C@@H](CC(N)=O)C(=O)N[C@H](C(=O)N[C@@H](Cc1ccc(O)cc1)C(N)=O)[C@@H](C)O)C(C)C)[C@@H](C)O
notes: Analogue of human amylin; also called compound 55
B3: in the assay with rat calcitonin receptor [1], the “Ratio rCT/rAmylin binding” value was 77.2. In addition, the “Ratio hCT/hAmylin binding” value in assay [2] turned out to be 51.8. Besides, the IC50 was determined as 6.25 nM with rat calcitonin receptor [3] and 0.081 nM in assay [4].

The record behind these values is US20140087995A1 (published 2014).
